Data taken from US20260070984A1 (Boehringer Ingelheim, published 2026).
Where a chain is given by its changes, count along the chain named. Values belong to the binder of their own block, whether it stands above or below them.

Columns and labels:
[1] = molecular target: human PD-1 expressed on cells (human, UniProt Q15116 25-288); assay: cell-based or functional assay
[2] = molecular target: T1, recombinant human PD-1 (human, UniProt Q15116 25-167, limits assumed); assay: SPR, ProteOn XPR36
T1 construct: Soluble recombinant protein used in SPR; also called PDCD1; purified recombinant human PD-1
Protocol: Kinetics and binding affinities were measured using the ProteOn™ XPR36 (Biorad, Hercules, CA) surface plasmon resonance optical biosensor using material generated from transient transfection following single column purification.

human PD-1 expressed on cells, sequence (Q15116 25-288): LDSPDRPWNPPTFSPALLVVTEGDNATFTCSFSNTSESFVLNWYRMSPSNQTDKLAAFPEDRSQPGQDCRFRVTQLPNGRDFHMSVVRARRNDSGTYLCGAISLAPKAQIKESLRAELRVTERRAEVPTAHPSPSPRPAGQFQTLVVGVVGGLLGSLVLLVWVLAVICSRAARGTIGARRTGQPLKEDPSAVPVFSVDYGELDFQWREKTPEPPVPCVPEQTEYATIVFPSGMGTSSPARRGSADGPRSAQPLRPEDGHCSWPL
T1 sequence (Q15116 25-167 limits assumed): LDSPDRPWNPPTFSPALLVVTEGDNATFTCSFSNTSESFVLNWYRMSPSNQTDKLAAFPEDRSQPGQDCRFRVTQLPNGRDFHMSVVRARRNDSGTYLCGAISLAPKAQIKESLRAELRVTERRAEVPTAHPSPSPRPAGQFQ

- Emax Values (%), inhibition of NFAT activity [1]: 53.2%
- IC50 Values (nM), inhibition of NFAT activity [1]: 1.69 nM
B1: 701C1 (mouse IgG1 backbone) (antibody, V domains shown)
VH: EVQLQQSGPELVKPGASVKMSCKASGYTFTSYVIHWVKQKPGQGLEWIGYIDPSNDDTKYNEKFKGKATLTSDKSSSTAYMELSSLTSEDSAVYYCAREAYYGGLYGMDYWGQGTSVTVSS
VL: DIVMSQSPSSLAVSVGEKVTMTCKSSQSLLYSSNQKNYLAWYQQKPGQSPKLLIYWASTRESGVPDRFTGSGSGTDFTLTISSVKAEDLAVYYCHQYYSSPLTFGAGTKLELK

- Kd [2]: 13 nM
- koff [2]: 0.000305 s⁻¹
- kon [2]: 23400 M⁻¹ s⁻¹
B2: Chimeric 701C1 (antibody, V domains shown)
VH: B1 VH
VL: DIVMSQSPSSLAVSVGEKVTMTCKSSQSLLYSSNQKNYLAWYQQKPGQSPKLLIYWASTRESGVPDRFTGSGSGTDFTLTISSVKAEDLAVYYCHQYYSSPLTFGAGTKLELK
notes: Mouse variable domains in human IgG4Pro (Ser228Pro) backbone; also called 701C1 in human IgG4Pro backbone

- Emax Values (%), inhibition of NFAT activity [1]: 48.3%
- IC50 Values (nM), inhibition of NFAT activity [1]: 0.38 nM
B3: 803E6 (mouse IgG1 backbone) (antibody, V domains shown)
VH: EVKLVESEGGLVQPGSSMKLSCTASGFTFSDYYMAWVRQVPEKGLEWVANINYDGFNTYYLDSLKSRFIISRDNAKNILYLQMSSLKSEDTATYYCARGGYWSLYFDYWGQGTTLTVSS
VL: DIVMTQSPSSLTVTAGEKVTMSCKSSQSLLHSGNQKNYMTWYQQKPGQPPKLLIYWASTRESGVPDRFTGSGSGTDFTLTISSVQAEDLAVYYCQNDYSYPLTFGAGTKLELK

- Kd [2]: 5.02 nM
- koff [2]: 0.00053 s⁻¹
- kon [2]: 106000 M⁻¹ s⁻¹
B4: Chimeric 803E6 (antibody, V domains shown)
VH: B3 VH
VL: B3 VL
notes: Mouse variable domains in human IgG4Pro (Ser228Pro) backbone; also called 803E6 in human IgG4Pro backbone

- Emax Values (%), inhibition of NFAT activity [1]: 29.8%
- IC50 Values (nM), inhibition of NFAT activity [1]: 0.04 nM
B5: 709A6 (mouse IgG1 backbone) (antibody, V domains shown)
VH: QVTLKESGPGILQPSQTLSLTCSFSGFSLSTSGMGVSWIRQPSGKGLEWLTHIYWDDDKRYNPSLKSRLTISKDTSRNQVFLEITSVDTADTATYFCARSSQGLYSSYDYWGQGTTLTVSS
VL: DIVLTQSPASLAVSLGQRATISCRASESVDIYGISFLHWYQQKPGQPPKHLIYRASNLDSGIPARFSGSGSRTDFTLTINPVETDDVATYYCQQSNKDPLTFGAGTKLELK

- Kd [2]: 5.52 nM
- koff [2]: 0.000483 s⁻¹
- kon [2]: 87400 M⁻¹ s⁻¹
B6: Chimeric 709A6 (antibody, V domains shown)
VH: B5 VH
VL: B5 VL
notes: Mouse variable domains in human IgG4Pro (Ser228Pro) backbone; also called 709A6 in human IgG4Pro backbone

- Kd [2]: 8.08 nM
- koff [2]: 0.000348 s⁻¹
- kon [2]: 43100 M⁻¹ s⁻¹
B7: Chimeric 708E4 (antibody, V domains shown)
VH: QIQLQQSGPELVKPGASVKISCKASGYTFTDYYLNWVKQRPGHGLEWIGWIYPGSSDTKHNENFKGKATLTVDTYSSTAYMQLGSLTSEDSAVYFCTRYSNFFFDYWGQGTTLTVSS
VL: DIVMTQSQKFLSTSVGDRVRVTCKASQNVVTYVAWYQQKPGQSPKSLIYSASYRYSGVPDRFTGSGSGTYFTLTINNVQFEDLAEYFCQQYHSYPYTFGGGTKLEIK
notes: Mouse variable domains in human IgG4Pro (Ser228Pro) backbone; also called 708E4 in human IgG4Pro backbone

- Kd [2]: 1.85 nM
- koff [2]: 0.000149 s⁻¹
- kon [2]: 80700 M⁻¹ s⁻¹
B8: Chimeric 814E10 (antibody, V domains shown)
VH: QIQLQQSGPELVKPGASVKISCKASGYTFTSYYIQWVKQRPGQGLEWIGWIYPGDGTTNYNENFKGKTTLTADKSSSTVYMLLSSLTSEDSAVYFCARYGLVPFDYWGQGTTLTVSS
VL: DIQMTQTTSSLSASLGDRVTISCSASQDIINYLNWYQQKPDGTVKLLIYSTSSLHSGVSLRFSGSGSGTDYSLTISNLEPEDVATYYCHQYSQLPYTFGGGTKLEIK
notes: Mouse variable domains in human IgG4Pro (Ser228Pro) backbone; also called 814E10 in human IgG4Pro backbone

- Kd [2]: 0.859 nM
- koff [2]: 5.77e-05 s⁻¹
- kon [2]: 67100 M⁻¹ s⁻¹
B9: Chimeric 313C12 (antibody, V domains shown)
VH: EVQLVESGGGLVKPGGSLKLSCAASGFTFSDYGMHWVRQTPEKGLEWIAYINSDSNTIYYADTVKGRFTISRDNARKTLYLQMTSLRSEDTAMYYCSPLVAPDYWGQGTTLTVSS
VL: DIVMTQSQKFMSTTVGDRVSITCKASQNVGTAVAWYQQKPGQSPKLLIYSVSNRYTGVPDRFTGSGSGTDFTLTISNMQSEDLADYFCQQYSSYPFTFGAGTKLELK
notes: Mouse variable domains in human IgG4Pro (Ser228Pro) backbone; also called 313C12 in human IgG4Pro backbone

- Emax Values (%), inhibition of NFAT activity [1]: 48.9%
- IC50 Values (nM), inhibition of NFAT activity [1]: 0.34 nM
B10: 502H1 (mouse IgG1 backbone) (antibody, V domains shown)
VH: QVTLKESGPGILQPSQTLSLTCSFSGFSLSTSGMGVTWIRKPSGQGLEWLAHIFWDGDKRYNPSLKSRLTISKDSSSNQVFLMITGVGTADAATYYCARYYYFDYGYAIDYWGQGTSVTVSS
VL: DIVMTQAAFYNPVTLGTSASISCRSSKSLLHRNGITYLYWYLQKPGQSPQLLIYQMSNLASGVPDRFSSSGSGADFTLRISRVEAEDVGVYYCAQNLELPLTFGAGTKLELK

- Kd [2]: 6.39 nM
- koff [2]: 0.000349 s⁻¹
- kon [2]: 54700 M⁻¹ s⁻¹
B11: Chimeric 502H1 (antibody, V domains shown)
VH: B10 VH
VL: B10 VL
notes: Mouse variable domains in human IgG4Pro (Ser228Pro) backbone; also called 502H1 in human IgG4Pro backbone

- Kd [2]: 56.4 nM
- koff [2]: 0.00765 s⁻¹
- kon [2]: 136000 M⁻¹ s⁻¹
B12: Chimeric 306E6 (antibody, V domains shown)
VH: EVQLQQSGPELVKPGSSVKISCKASGYTFTDYYVNWVKQSHGKSLEWFGDIHPNSGDTTYNQKFKDKATLTVDKSSSTAYMELRSLTSEDSAVYYCARRRYDYDGFAYWGQGTLVTVSA
VL: B10 VL with D1E, Y10S, Q55E, A74T, A94G, L99F
notes: Mouse variable domains in human IgG4Pro (Ser228Pro) backbone; also called 306E6 in human IgG4Pro backbone

- Emax Values (%), inhibition of NFAT activity [1]: 42.6%
- IC50 Values (nM), inhibition of NFAT activity [1]: 1.03 nM
B13: 307A3 (mouse IgG1 backbone) (antibody, V domains shown)
VH: B12 VH with S16A, S55N, D57G, T58I, D66G, T69S
VL: B10 VL with D1E, Y10S, Q55E, S69G, A74T, A94G, L99F

- Kd [2]: 63.5 nM
- koff [2]: 0.0074 s⁻¹
- kon [2]: 116000 M⁻¹ s⁻¹
B14: Chimeric 307A3 (antibody, V domains shown)
VH: B12 VH with S16A, S55N, D57G, T58I, D66G, T69S
VL: B10 VL with D1E, Y10S, Q55E, S69G, A74T, A94G, L99F
notes: Mouse variable domains in human IgG4Pro (Ser228Pro) backbone; also called 307A3 in human IgG4Pro backbone

- Emax Values (%), inhibition of NFAT activity [1]: 45%
- IC50 Values (nM), inhibition of NFAT activity [1]: 0.39 nM
B15: 414A12 (mouse IgG1 backbone) (antibody, V domains shown)
VH: QVQLQQPGAELVKPGASVKLSCKASGHTFTSNWIHWVKQRPGQGLEWIGEIDPSDSYTYYNQKFKGKATLTVDKSSSTAYMQLSSLTSEDSAVYSCACPGRNSNFAYWGQGTTLTVSS
VL: DILMTQSPSSMSVSLGDTVSITCHASQGINNNIGWLQQKPGKSFKGLIYHKSNLEDGVPSRFSGSGSGADYSLTISSLESEDFADYYCVQYAQFPYTFGGGTKLEIK

- Kd [2]: 1.5 nM
- koff [2]: 0.000269 s⁻¹
- kon [2]: 180000 M⁻¹ s⁻¹
B16: Chimeric 414A12 (antibody, V domains shown)
VH: B15 VH
VL: B15 VL
notes: Mouse variable domains in human IgG4Pro (Ser228Pro) backbone; also called 414A12 in human IgG4Pro backbone

- Emax Values (%), inhibition of NFAT activity [1]: 46%
- IC50 Values (nM), inhibition of NFAT activity [1]: 0.22 nM
B17: 701E9 (mouse IgG1 backbone) (antibody, V domains shown)
VH: QVQLQQSGPELVKPGASVKLSCKASGYTFIDYTIHWVKQSPGQGLEWIGWIFPGSTNDTKYNDKFKGKATMTADKSSSTAYMQLSSLTSEDSAVYFCARYRTDFDYWGQGTTLTVSS
VL: DIQMTQSPSSLSASLGERVSLTCRASQEISGYLSWLQQKPDGTIKRLIYAASTLDSGVPKRFSGSRSGSDYSLTISSLESEDFADYYCLQYASYPLTFGAGTKLELK

- Kd [2]: 9.14 nM
- koff [2]: 0.000801 s⁻¹
- kon [2]: 87700 M⁻¹ s⁻¹
B18: Chimeric 811G3 (antibody, V domains shown)
VH: QIQLQQSGPEVVKPGASVKISCKASGYTFTDYYINWVKQRPGQGLEWIGWIYPGGGHTKYNEKFKGEATLTVDTSSRTAYMQLSSLTSEDSAVYFCARYSNYYFDFWGHGTTLTVSS
VL: B17 VL with L15P, A50V, S93N, L96Y, A100G, L106I
notes: Mouse variable domains in human IgG4Pro (Ser228Pro) backbone; also called 811G3 in human IgG4Pro backbone

- Kd [2]: 1.62 nM
- koff [2]: 0.000143 s⁻¹
- kon [2]: 88300 M⁻¹ s⁻¹
B19: Chimeric 701E9 (antibody, V domains shown)
VH: B17 VH
VL: B17 VL
notes: Mouse variable domains in human IgG4Pro (Ser228Pro) backbone; also called 701E9 in human IgG4Pro backbone

- Emax Values (%), inhibition of NFAT activity [1]: 44.5%
- IC50 Values (nM), inhibition of NFAT activity [1]: 0.14 nM
B20: 811G3 (mouse IgG1 backbone) (antibody, V domains shown)
VH: B18 VH
VL: B17 VL with L15P, A50V, S93N, L96Y, A100G, L106I
